Reference: patent US20070117180A1, “Enzyme producing plasma protein fragment having inhibitory activity to metastasis and growth of cancer and plasma protein fragment produced by fragmentation by said enzyme” (priority 1998, published 2007)

Legend:
Lung cancer cells (LL/2) = experiment: Test for inhibitory activity to metastasis and growth of cancer (number of nodes on the lung surface); assay type: in vivo, mice
Procedure: The protein fragments prepared as described above were dissolved in a physiological saline and used as a sample for animal tests. As a system for estimating an inhibitory effect to growth of metastasized cancerous focus, cancer capable of metastasis and growth was transplanted to mice where distally metastasized cancerous focus was observed. Lung cancer cells (LL/2; Dainippon Seiyaku K.K.) were subcutaneously transplanted to mice at the back. The animals were bred until a primary cancerous focus grows up to a predetermined size and the primary focus was then removed surgically. The sample was administered to mice intraperitoneally at 1 mg/mouse/day for 10 days. […]
(§1) After completion of each test, mice were dissected. The number of nodes on the lung surface, in case of test for inhibitory activity to metastasis and growth of cancer, or a weight of the lung, for test for inhibitory activity to growth of metastasized cancerous focus, was measured respectively and compared with control groups (Mann Whetney U test). […] In test for inhibitory activity to growth of metastasized cancerous focus, the lung was measured 0.44±0.28 g (n=6) for the control group while it was measured 0.23±0.08 g (n=6) for the group administered with the plasminogen fragment.

[1] = tested on: Lewis lung cancer cells (LL/2); experiment: Test for inhibitory activity to growth of metastasized cancerous focus (weight of the lung); assay type: in vivo, C57B1 mice; details: n=6, control 0.44±0.28
Procedure: The protein fragments prepared as described above were dissolved in a physiological saline and used as a sample for animal tests. As a system for estimating an inhibitory effect to growth of metastasized cancerous focus, cancer capable of metastasis and growth was transplanted to mice where distally metastasized cancerous focus was observed. Lung cancer cells (LL/2; Dainippon Seiyaku K.K.) were subcutaneously transplanted to mice at the back. The animals were bred until a primary cancerous focus grows up to a predetermined size and the primary focus was then removed surgically. […] As a control, mice were administered with a physiological saline alone as used for dissolving the lyophilized sample (test for inhibitory activity to growth of metastasized cancerous focus).
as §1, with “fragment. […]” for “fragment.”

[2] = tested on: bovine aorta endothelial (BAE) cells; experiment: Test for inhibitory activity to growth of vascular endothelial cells, bovine aorta endothelial cells; assay type: cell-based; design: dose or concentration left out as unconfirmed; details: cell count after 72 hours, plasminogen fragments
Procedure: The activity of the plasminogen fragments was also estimated as described by O'Reilly et al. using bovine aorta endothelial (BAE) cells purchased from Sanko Jun-yaku K.K. BAE cells were cultured for maintenance on a 24-well plate (manufactured by Iwaki Glass K.K.) coated with gelatin in a DMEM basal medium containing 10% fetal calf serum (FCS), 3 ng/ml basic FGF (bFGF), 1% glutamine, 1% penicillin and 1% streptomycin at 5% CO2. BAE cells were plated on a 24-well gelatin-coated plate at 12,500 cells/well and cultured on the basal medium deprived of bFGF for 24 hours. […] contained 5% FCS but was deprived of bFGF and the plasminogen fragments were reacted with the cells at 37° C. for 20 minutes. A physiological saline was used as a negative control whereas angiostatin (Angiostatin, manufactured by Technoclone) was used as a positive control. After reaction, the basal medium containing 5% FCS and 2 ng/ml bFGF was added and the cells were cultured at 37° C. for additional 72 hours. The cells were peeled off the well with trypsin/EDTA solution and counted with Coulter counter (manufactured by Coulter).

[3] = design: species or system mice; details: mouse, in vivo, iv
[4] = General pharmacological test, effects on the respiratory and circulatory organs; assay type: in vivo; details: Beagle dog

B1: plasminogen fragments: plasminogen fragments comprising Kringles 1 to 4 produced by cleavage of plasminogen with PACE4 (protein)
chain: VIMAENRKSSIIIRMRDVVLFEKKVYLSECKTGNGKNYRGTMSKTKNGITCQKWSSTSPHRPRFSPATHPSEGLEENYCRNPDNDPQGPWCYTTDPEKRYDYCDILECEEECMHCSGENYDGKISKTMSGLECQAWDSQSPHAHGYIPSKFPNKNLKKNYCRNPDRELRPWCFTTDPNKRWELCDIPRCTTPPPSSGPTYQCLKGTGENYRGNVAVTVSGHTCQHWSAQTPHTHNRTPENFPCKNLDENYCRNPDGKRAPWCHTTNSQVRWEYCKIPSCDSSPVSTEQLAPTAPPELTPVVQDCYHGDGQSYRGTSSTTTTGKKCQSWSSMTPHRHQKTPENYPNAGLTMNYCRNPDADKGPWCFTTDPSVRWEYCNL
- number of nodes representing metastasis and growth of cancer (Lung cancer cells (LL/2); 1 mg/mouse/day intraperitoneally for 10 days after removal of primary focus, n=6, control 6.3±0.2): 2.1 ± 0.8
- inhibitory activity to metastasis and growth of cancer cells (Lung cancer cells (LL/2); mouse model in which Lewis lung cancer was transplanted): had an inhibitory activity to metastasis and growth of cancer cells
- weight of the lung ([1]; 25 μg/animal intraperitoneally for 10 days, dissected Day 11): 0.23 ± 0.08 g
- weight of the lung ([1]; 1 mg/mouse/day intraperitoneally for 10 days): 0.23 ± 0.08 g
- inhibitory activity to growth of the vascular endothelial cells [2]: no inhibitory activity
- inhibitory activity to growth of the vascular endothelial cells ([2]; listed as plasminogen fragment): inhibitory effects to its growth have not been obtained
- safety in single-dose toxicity test [3]: confirmed for their safety
- safety in general pharmacological test (respiratory and circulatory organs) [4]: confirmed for their safety
